According to IntAct's records for PubMed 25487150:

Legend:
[1] = biological target: pp11_schpo dis2 (UniProt P13681)
[2] = biological target: pp11_schpo dis2 (UniProt P13681); remark: listed apart in the source
[3] = biological target: pp1g_human PPP1CC (UniProt P36873)
[4] = biological target: pp1b_human PPP1CB (UniProt P62140)
[5] = biological target: pp1a_human PPP1CA (UniProt P62136)
Chain of pp1a_human PPP1CA (P62136 whole entry): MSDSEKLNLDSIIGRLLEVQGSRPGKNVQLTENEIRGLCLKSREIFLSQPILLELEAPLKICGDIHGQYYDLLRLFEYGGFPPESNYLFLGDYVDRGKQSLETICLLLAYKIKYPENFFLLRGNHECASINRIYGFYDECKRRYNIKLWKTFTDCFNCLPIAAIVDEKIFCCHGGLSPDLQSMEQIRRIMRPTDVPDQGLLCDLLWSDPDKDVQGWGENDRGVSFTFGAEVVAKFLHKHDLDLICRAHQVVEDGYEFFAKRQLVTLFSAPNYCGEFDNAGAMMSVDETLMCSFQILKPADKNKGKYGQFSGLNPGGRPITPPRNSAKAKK

Chain of pp11_schpo dis2 (P13681 whole entry): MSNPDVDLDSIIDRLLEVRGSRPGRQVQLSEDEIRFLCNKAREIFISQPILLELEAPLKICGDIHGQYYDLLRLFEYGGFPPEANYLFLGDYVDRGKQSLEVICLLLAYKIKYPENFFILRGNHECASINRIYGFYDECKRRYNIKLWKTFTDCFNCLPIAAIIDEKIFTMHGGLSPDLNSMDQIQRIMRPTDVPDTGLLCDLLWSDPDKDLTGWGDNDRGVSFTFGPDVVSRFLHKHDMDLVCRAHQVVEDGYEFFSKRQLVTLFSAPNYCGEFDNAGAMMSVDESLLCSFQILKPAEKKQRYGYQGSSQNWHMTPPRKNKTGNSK
Chain of Serine/threonine-protein phosphatase 2A 56 kDa regulatory subunit delta 1 isoform (Schizosaccharomyces pombe (strain ATCC 38366 / 972)), Q10428 G367A;V381A (Q10428 whole entry G367A/V381A, canonical isoform): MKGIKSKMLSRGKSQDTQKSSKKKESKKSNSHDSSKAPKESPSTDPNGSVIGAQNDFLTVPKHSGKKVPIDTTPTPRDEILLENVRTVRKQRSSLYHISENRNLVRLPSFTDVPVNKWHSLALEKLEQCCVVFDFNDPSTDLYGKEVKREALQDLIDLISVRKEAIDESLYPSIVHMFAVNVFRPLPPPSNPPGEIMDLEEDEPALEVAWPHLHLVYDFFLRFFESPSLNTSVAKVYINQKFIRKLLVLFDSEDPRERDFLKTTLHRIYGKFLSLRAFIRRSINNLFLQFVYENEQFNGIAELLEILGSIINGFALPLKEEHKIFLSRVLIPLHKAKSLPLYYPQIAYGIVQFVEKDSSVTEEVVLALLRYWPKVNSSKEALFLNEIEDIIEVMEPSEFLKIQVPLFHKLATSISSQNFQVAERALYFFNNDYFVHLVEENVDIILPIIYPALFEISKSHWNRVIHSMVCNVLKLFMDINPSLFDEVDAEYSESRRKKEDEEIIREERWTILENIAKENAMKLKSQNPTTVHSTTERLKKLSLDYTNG
Chain of Serine/threonine-protein phosphatase 2A 56 kDa regulatory subunit delta 1 isoform (Schizosaccharomyces pombe (strain ATCC 38366 / 972)), Q10428 G367A (Q10428 whole entry G367A, canonical isoform): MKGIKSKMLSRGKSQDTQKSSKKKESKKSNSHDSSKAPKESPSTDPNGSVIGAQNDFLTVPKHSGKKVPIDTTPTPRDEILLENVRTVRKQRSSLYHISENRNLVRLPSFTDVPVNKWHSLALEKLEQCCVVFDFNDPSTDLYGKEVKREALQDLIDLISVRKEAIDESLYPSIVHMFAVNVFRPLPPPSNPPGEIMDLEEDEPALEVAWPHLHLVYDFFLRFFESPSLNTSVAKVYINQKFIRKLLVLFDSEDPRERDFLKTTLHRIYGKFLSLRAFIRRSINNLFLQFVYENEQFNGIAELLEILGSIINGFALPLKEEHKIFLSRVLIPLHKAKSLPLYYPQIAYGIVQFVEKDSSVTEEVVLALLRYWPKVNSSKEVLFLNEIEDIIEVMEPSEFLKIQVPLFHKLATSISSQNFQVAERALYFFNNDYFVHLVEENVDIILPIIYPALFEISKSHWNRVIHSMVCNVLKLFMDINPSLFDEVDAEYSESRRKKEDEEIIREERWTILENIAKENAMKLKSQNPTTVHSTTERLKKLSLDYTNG
Chain of Serine/threonine-protein phosphatase 2A 56 kDa regulatory subunit delta 1 isoform (Schizosaccharomyces pombe (strain ATCC 38366 / 972)), Q10428 K379A;V381A;F383A (Q10428 whole entry K379A/V381A/F383A, canonical isoform): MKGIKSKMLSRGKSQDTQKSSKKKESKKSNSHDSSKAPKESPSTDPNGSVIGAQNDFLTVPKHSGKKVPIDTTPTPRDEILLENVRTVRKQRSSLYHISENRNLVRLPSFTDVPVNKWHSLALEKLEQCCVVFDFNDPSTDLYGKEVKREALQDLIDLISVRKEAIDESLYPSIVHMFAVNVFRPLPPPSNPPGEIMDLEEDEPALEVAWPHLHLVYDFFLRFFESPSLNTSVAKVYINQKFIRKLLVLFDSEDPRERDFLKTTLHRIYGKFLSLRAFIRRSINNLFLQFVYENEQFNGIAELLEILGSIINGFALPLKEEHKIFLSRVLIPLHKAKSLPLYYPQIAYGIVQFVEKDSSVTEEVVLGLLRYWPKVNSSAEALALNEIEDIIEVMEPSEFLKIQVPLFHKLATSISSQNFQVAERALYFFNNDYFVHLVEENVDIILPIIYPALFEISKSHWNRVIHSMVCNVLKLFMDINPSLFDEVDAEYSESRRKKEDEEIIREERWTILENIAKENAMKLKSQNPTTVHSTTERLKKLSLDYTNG
Chain of Serine/threonine-protein phosphatase 2A 56 kDa regulatory subunit delta 1 isoform (Schizosaccharomyces pombe (strain ATCC 38366 / 972)), Q10428 G367V (Q10428 whole entry G367V, canonical isoform): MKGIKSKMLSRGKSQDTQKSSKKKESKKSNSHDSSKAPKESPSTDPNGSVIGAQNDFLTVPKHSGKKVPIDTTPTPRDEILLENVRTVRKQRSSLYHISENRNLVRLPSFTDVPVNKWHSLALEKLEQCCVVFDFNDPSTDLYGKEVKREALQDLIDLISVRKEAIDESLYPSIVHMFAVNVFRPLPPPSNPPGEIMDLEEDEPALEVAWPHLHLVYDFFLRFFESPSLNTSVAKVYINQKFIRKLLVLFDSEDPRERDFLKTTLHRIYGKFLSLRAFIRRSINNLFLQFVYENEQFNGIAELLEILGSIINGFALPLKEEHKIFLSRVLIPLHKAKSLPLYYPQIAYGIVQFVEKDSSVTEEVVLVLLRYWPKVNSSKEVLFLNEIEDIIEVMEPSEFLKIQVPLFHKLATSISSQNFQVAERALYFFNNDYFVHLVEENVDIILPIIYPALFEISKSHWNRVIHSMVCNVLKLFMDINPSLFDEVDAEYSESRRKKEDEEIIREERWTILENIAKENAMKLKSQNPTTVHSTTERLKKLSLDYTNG
Chain of pp1b_human PPP1CB (P62140 whole entry): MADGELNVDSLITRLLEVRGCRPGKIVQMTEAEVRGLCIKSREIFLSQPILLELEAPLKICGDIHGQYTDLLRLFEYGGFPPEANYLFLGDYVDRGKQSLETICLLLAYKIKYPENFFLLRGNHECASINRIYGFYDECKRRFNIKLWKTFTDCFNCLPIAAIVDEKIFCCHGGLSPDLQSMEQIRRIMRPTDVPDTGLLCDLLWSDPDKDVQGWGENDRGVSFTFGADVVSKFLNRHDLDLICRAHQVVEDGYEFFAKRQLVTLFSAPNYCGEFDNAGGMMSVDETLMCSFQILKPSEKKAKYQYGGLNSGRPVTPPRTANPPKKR
Chain of Serine/threonine-protein phosphatase 2A 56 kDa regulatory subunit delta 1 isoform (Schizosaccharomyces pombe (strain ATCC 38366 / 972)), Q10428 G367V;V381A (Q10428 whole entry G367V/V381A, canonical isoform): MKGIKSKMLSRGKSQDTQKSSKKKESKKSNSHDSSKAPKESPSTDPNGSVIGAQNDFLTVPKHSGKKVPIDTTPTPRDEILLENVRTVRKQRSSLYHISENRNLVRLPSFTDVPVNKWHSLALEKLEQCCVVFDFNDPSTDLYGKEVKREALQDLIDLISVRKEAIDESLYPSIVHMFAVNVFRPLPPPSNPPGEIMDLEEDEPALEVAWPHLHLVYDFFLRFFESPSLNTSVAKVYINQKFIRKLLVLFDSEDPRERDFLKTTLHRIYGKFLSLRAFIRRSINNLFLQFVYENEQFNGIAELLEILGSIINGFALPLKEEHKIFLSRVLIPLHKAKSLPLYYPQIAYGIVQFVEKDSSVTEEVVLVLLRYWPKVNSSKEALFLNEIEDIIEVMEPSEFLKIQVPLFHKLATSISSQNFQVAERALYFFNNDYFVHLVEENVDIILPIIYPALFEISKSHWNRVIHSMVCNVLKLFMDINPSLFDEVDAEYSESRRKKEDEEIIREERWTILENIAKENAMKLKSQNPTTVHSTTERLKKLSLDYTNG
Chain of Serine/threonine-protein phosphatase 2A 56 kDa regulatory subunit delta 1 isoform (Schizosaccharomyces pombe (strain ATCC 38366 / 972)), Q10428 S378D (Q10428 whole entry S378D, canonical isoform): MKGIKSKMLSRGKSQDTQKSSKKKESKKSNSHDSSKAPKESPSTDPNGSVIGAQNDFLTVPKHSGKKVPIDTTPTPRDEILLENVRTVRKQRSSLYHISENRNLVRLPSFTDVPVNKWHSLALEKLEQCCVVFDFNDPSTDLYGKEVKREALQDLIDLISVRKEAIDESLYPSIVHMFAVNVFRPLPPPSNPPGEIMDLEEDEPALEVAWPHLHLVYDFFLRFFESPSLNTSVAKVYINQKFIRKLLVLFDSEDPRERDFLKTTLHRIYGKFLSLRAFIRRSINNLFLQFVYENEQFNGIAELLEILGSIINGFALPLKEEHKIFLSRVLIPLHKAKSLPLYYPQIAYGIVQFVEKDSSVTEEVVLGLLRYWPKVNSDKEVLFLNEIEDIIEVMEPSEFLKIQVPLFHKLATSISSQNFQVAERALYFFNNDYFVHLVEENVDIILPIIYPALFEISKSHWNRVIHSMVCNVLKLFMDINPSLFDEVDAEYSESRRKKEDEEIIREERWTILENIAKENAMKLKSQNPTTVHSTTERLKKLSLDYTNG
Chain of pp1g_human PPP1CC (P36873 whole entry, looked up): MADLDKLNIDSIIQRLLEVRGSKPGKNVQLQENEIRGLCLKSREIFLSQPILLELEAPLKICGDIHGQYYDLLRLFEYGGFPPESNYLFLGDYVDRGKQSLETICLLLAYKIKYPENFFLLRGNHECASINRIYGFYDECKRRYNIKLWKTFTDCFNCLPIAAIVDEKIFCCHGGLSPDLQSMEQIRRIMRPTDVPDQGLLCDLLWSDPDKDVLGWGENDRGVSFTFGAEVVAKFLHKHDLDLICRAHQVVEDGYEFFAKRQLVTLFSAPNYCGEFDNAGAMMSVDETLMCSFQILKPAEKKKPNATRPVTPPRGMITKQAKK

| effect of a mutation on the interaction [1] | effect of a mutation on the interaction [2] | further results | Substance |
| --- | --- | --- | --- |
| disrupting interaction strength | decreasing interaction strength |  | Serine/threonine-protein phosphatase 2A 56 kDa regulatory subunit delta 1 isoform (Schizosaccharomyces pombe (strain ATCC 38366 / 972)), Q10428 G367A |
|  | disrupting interaction strength |  | Serine/threonine-protein phosphatase 2A 56 kDa regulatory subunit delta 1 isoform (Schizosaccharomyces pombe (strain ATCC 38366 / 972)), Q10428 G367A;K379A;V381A;F383A |
| disrupting interaction strength | decreasing interaction strength |  | Serine/threonine-protein phosphatase 2A 56 kDa regulatory subunit delta 1 isoform (Schizosaccharomyces pombe (strain ATCC 38366 / 972)), Q10428 G367A;V381A |
| disrupting interaction strength | decreasing interaction strength |  | Serine/threonine-protein phosphatase 2A 56 kDa regulatory subunit delta 1 isoform (Schizosaccharomyces pombe (strain ATCC 38366 / 972)), Q10428 G367V |
|  | disrupting interaction strength |  | Serine/threonine-protein phosphatase 2A 56 kDa regulatory subunit delta 1 isoform (Schizosaccharomyces pombe (strain ATCC 38366 / 972)), Q10428 G367V;K379A;V381A;F383A |
|  | decreasing interaction strength |  | Serine/threonine-protein phosphatase 2A 56 kDa regulatory subunit delta 1 isoform (Schizosaccharomyces pombe (strain ATCC 38366 / 972)), Q10428 G367V;V381A |
| disrupting interaction strength | decreasing interaction strength |  | Serine/threonine-protein phosphatase 2A 56 kDa regulatory subunit delta 1 isoform (Schizosaccharomyces pombe (strain ATCC 38366 / 972)), Q10428 K379A;V381A;F383A |
|  | disrupting interaction strength |  | Serine/threonine-protein phosphatase 2A 56 kDa regulatory subunit delta 1 isoform (Schizosaccharomyces pombe (strain ATCC 38366 / 972)), Q10428 S378D |
|  |  | effect of a mutation on the interaction [3]: disrupting interaction strength; effect of a mutation on the interaction [4]: disrupting interaction strength; effect of a mutation on the interaction [5]: disrupting interaction strength | Serine/threonine-protein phosphatase 2A 56 kDa regulatory subunit gamma isoform (Homo sapiens) (from UniProt Q13362) L289A;L290A;V302A;F304A |
